Values quoted from earlier work in article PMC11769735.
Where two headings read alike, the source gives them in different places.

How the values were obtained:
[1] = target: ADP-actin filament barbed end (UniProt P68133)
[2] = target: G-actin (UniProt P68133)
[3] = target: G-actin (UniProt P68133); remark: listed apart in the source

Twinfilin (from UniProt Q91YR1)
Kd [1]: 13 nM

Twinfilin C-ADF-H (from UniProt Q91YR1)
Kd [2]: 50 nM

Twinfilin N-ADF-H (from UniProt Q91YR1)
Kd [3]: 700 nM
